Test results taken from patent US9994881B2, “Functionalized carboxylic acids and alcohols by reverse fatty acid oxidation in engineered microbes” (William Marsh Rice University, priority 2011, dated 2018).
Marks after values point to notes of the source that are not given here.

Assays:
[1] = target: T1, E. coli YciA (acyl-CoA thioesterase, NP_415769.1), wild type (Escherichia coli, UniProt P0A8Z0); test: Thioesterase kinetics (production of TNB at 412 nm); settings: pH 7.5, 200 mM KCl, DTNB, 25° C.
T1 sequence (P0A8Z0 1-132): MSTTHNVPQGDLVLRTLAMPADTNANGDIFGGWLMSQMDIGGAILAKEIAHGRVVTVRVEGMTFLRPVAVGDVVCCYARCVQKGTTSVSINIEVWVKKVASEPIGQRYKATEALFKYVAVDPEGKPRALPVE
Procedure: Cells were lysed using Bacterial Protein Extraction Reagent (B-PER) (Thermo Scientific, Waltham, Mass.) as per the prescribed protocol in order to obtain the supernatant containing the active enzymes.
For kinetic characterization, an appropriate amount of enzyme was established by checking linear range near predicted KM values. Then, the rates were measured for a range of substrates in order to establish kcat and KM. In the cases of FadB for the crotonase reaction and FadA in the “forward” thiolase reaction coupled with HBD, substrate saturation could not be established, as such, the kcat/KM for the reaction was determined by dividing the linear slope of Velocity vs. [Substrate] by the amount of enzyme used in the assays. For reactions that could be saturated, Velocity vs. [Substrate] was fitted by the EnzKIN Matlab module (mathworks.com/matlabcentral/fileexchange/26653) to establish Vmax and KM.
Thioesterase activity was monitored by following the production of TNB at 412 nm (ε=4.3 mM^−1 cm^−1)^30. Reactions were carried out in the presence of 100 mM Tris pH 7.5, 200 mM KCl, 25 mM DTNB and 200 μM of the ‘-CoA’ substrate in a volume of 200 μL at 25° C.

[2] = forward thiolase assay (biosynthetic direction), coupled with caHBD; assay type: biochemical; settings: substrate Acetyl-CoA; supernatant fraction; AtoB expressed from pCA24N, FadA from pUCBB-ntH6
Procedure: (§1) Cultures for enzymatic assays were grown overnight in 100 mL of LB media at 37° C. in 250 mL baffled flasks (Wheaton Industries, Inc., Millville, N.J.) in E. coli BL21 (DE3) cells induced with either 1 mM IPTG (pCA24N, pTrcHis2A) or 1 mM Arabinose (pUCBB-pBAD) at an OD600˜0.6, or expressed constitutively (pUCBB-ntH6). Reactions were monitored on either a Synergy HT plate reader (BioTek Instruments, Inc., Winooski, Vt.) at 25° C. (for reactions monitored at 300 nm or higher) or in a Biomate 5 Spectrophotometer (Thermo Scientific, Waltham, Mass.) for reactions at 263 nm. […]
(§2) For kinetic characterization, his-tagged proteins of AtoB, FadA, FadB, caHBD, egTER were purified from the B-PER supernatant fractions using Talon Metal Affinity Resin (Clontech Laboratories, Inc., Mountain View, Calif.) using gravity purification. […] Enzyme concentration was established by measuring the absorbance at […] and extinction coefficients predicted for each enzyme by the ProtParam program (web.expasy.org/protparam/).
(§3) For kinetic characterization, an appropriate amount of enzyme was established by checking linear range near predicted KM values. Then, the rates were measured for a range of substrates in order to establish kcat and KM. […]

[3] = thiolase activity in the reverse direction (loss of acetoacetyl-CoA at 303 nm); assay type: biochemical; settings: substrate Acetoacetyl-CoA; supernatant fraction; AtoB expressed from pCA24N, FadA from pUCBB-ntH6
Procedure: as §1, §2, §3

Compound | kcat [1] | Specific Activity [2] | Specific Activity [3]
CC(=O)SCCNC(=O)CCNC(=O)[C@H](O)C(C)(C)COP(=O)(O)OP(=O)(O)OC[C@H]1O[C@@H](n2cnc3c(N)ncnc32)[C@H](O)[C@@H]1OP(=O)(O)O [Acetyl-CoA] | 6.9 ± 0.1 s⁻¹ | – | –
AtoB: E. coli thiolase with higher specificity for short-chain acyl-CoA molecules | – | 0.919 ± 0.002^b μmol/mg/min | 0.36 ± 0.05^b μmol/mg/min
